We go through two substances from PMC3917506.

Where two headings read alike, the source gives them in different places.

Common to all, as to assay: FRET or BRET
Background: BRET reads energy transfer from a luciferase to a nearby fluorophore.

Assay [1] has as its target mCherry-actin (UniProt P60709).
Assay [2] deals with mCherry-actin (UniProt P60709). The source holds these as a separate data set.
Assay [3] has as its target mCherry-actin (UniProt P60709). The source holds these as a separate data set.
The target of the next assay is Venus-IQGAP1 (human) (UniProt P46940).
Venus-IQGAP1 (human), sequence (P46940 whole entry): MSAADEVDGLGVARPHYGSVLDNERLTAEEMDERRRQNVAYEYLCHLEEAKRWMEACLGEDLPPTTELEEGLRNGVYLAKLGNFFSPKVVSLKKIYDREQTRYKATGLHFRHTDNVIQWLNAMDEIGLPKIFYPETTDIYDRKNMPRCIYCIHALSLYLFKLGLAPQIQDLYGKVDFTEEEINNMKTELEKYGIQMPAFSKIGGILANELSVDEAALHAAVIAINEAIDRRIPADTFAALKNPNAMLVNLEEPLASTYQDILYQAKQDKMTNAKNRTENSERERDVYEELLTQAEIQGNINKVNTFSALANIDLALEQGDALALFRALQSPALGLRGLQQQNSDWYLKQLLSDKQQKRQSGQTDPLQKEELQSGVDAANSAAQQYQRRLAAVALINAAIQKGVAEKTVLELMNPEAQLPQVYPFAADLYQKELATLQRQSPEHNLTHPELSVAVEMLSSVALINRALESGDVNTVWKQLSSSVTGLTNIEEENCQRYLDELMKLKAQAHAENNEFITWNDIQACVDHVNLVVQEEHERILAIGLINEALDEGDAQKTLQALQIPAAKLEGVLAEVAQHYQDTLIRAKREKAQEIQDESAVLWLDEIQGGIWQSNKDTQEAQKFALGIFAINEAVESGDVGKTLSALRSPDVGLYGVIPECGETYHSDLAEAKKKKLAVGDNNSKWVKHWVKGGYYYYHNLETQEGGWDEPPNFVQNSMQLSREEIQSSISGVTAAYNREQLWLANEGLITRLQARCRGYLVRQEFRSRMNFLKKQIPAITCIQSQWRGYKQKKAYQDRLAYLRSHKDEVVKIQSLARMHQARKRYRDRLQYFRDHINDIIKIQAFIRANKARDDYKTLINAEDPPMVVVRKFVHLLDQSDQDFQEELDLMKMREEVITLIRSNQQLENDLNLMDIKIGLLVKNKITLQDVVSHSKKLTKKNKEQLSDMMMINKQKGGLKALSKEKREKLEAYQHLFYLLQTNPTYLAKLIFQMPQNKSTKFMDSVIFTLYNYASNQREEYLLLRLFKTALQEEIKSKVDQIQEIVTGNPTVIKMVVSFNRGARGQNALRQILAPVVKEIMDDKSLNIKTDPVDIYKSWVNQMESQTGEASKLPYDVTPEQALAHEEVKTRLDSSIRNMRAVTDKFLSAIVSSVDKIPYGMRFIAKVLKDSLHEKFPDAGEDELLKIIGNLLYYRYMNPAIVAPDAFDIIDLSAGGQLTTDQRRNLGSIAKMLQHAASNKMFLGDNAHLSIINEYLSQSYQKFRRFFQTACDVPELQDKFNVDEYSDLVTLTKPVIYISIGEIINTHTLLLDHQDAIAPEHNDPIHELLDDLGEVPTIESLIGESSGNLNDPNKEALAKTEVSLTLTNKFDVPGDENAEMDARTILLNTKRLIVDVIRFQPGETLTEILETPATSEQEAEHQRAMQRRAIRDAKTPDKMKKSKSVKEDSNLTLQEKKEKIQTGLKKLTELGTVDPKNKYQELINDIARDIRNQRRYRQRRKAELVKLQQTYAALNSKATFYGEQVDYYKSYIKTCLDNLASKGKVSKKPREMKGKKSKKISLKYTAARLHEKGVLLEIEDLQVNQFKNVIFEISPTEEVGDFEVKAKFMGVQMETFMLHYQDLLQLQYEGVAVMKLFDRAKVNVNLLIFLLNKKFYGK

Venus-IQGAP1, sequence (P46940 whole entry): as above
CFP-Cdc42, P60953 1-191 (natural protein; other documents disagree on this pair), sequence (P60953 whole entry): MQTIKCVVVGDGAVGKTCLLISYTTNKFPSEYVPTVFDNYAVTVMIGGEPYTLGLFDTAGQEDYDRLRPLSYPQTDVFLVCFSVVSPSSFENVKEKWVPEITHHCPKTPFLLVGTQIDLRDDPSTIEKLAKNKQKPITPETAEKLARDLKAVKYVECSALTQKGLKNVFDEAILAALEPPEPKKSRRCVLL

With “Venus-IQGAP1 (from UniProt P46940 1-1657) (natural protein)”, the FRET efficiency E% at low D:A ratios (regression line) with mCherry-actin [1] and in the assay with mCherry-actin [3] was 25 to 35% each time. Further, the average FRET efficiency E% with mCherry-actin [1] was 31%; in the assay with mCherry-actin [2], 26%.

In the case of “CFP-Cdc42, P60953 1-191 (natural protein; other documents disagree on this pair)”, in the assay with Venus-IQGAP1 (human), the FRET efficiency E% at low D:A ratios (regression line) was 25% and the average FRET efficiency E% worked out at 20%.
